# Results: patent publication US20210324076A1 (AMPHIVENA THERAPEUTICS, published 2021)
# Target: human CD3 (human, UniProt P07766 23-207; P09693 23-182; P04234 22-171; P20963 22-164)
# Assay: cell-based or functional assay
# Sequence of human CD3 (P07766 23-207, chain 1 of 4): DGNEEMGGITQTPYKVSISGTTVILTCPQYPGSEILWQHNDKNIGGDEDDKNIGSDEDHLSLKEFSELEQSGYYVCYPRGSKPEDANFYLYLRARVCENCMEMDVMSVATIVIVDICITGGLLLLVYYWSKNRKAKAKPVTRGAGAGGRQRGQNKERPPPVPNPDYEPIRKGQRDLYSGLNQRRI
# Sequence of human CD3 (P09693 23-182, chain 2 of 4): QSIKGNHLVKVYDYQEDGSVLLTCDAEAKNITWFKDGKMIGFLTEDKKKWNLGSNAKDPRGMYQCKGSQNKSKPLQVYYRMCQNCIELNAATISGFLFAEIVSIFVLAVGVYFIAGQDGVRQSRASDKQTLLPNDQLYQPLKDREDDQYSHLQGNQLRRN
# Sequence of human CD3 (P04234 22-171, chain 3 of 4): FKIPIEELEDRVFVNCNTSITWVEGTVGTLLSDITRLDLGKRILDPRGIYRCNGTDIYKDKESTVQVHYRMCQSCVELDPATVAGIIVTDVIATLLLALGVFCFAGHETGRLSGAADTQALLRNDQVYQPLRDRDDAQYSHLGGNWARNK
# Sequence of human CD3 (P20963 22-164, chain 4 of 4): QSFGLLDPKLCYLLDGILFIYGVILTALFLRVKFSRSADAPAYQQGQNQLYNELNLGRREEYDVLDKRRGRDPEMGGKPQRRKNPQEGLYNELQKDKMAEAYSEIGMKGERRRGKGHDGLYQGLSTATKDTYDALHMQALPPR
"CD25 Induction EC50 (PBMC, 24 h)","CD69 Induction EC50 (PBMC, 24 h)",Binder
0.134 nM,0.065 nM,CD33/CD3 2×2 T-cell engager 07 (bispecific antibody) DIQMTQSPSSLSASVGDRVTITCRSSTGAVTTSNYANWVQQKPGKAPKALIGGTNKRAPGVPSRFSGSLIGDKATLTISSLQPEDFATYYCALWYSNLWVFGQGTKVEIKGGSGGSQVQLQESGGGVVQPGRSLRLSCAASGFSFSNYGIHWVRQAPGKGLEWVALISYDGNKKFYADSVKGRFAISRDTSKNTVDLQMTSLRPEDTAVYYCAKDRLESAAFDYWGQGTLVTVSSGGSGGSSYELTQPPSVSVAPGQTAMITCGGNNIGSTTVHWYQQKPGQAPVLVVYDDNERPSGIPERFSGSNSGSTATLTINRVEAGDEADYYCQVWDSGSDHVVFGGGTKLTVLGGSGGSEVQLVESGGGLVQPGGSLRLSCAASGFTFSTYAMNWVRQAPGKGLEWVGRIRSKYNNYATYYADSVKDRFTISRDDSKNSLYLQMNSLKTEDTAVYYCARHGNFGNSYVSYFAYWGQGTLVTVSSAAAGSHHHHHH
0.011 nM,0.007 nM,CD33/CD3 2×2 T-cell engager 09 (bispecific antibody) DIQMTQSPSSLSASVGDRVTITCRSSTGAVTTSNYANWVQQKPGKAPKGLIGGTNKRAPGVPSRFSGSLIGDKATLTISSLQPEDFATYYCALWYSNLWVFGQGTKVEIKGGSGGSQVQLVQSGAEVKKPGASVKVSCKASGYTFTSYDINWVRQAPGQGLEWMGWMNPNSGNTGFAQKFQGRVTMTRDTSTSTVYMELSSLRSEDTAVYYCARDRANTDFSYGMDVWGQGTLVTVSSGGSGQSVLTQPPSASGTPGQRVTISCSGSRSNIGSNTVNWYQQLPGTAPKLLIYGNNQRPSGVPDRFSGSKSGTSASLAISGLQSEDEADYYCATWDDSLIGWVFGGGTKLTVLGGSGGSEVQLVESGGGLVQPGGSLRLSCAASGFTFSTYAMNWVRQAPGKGLEWVGRIRSKYNNYATYYADSVKDRFTISRDDSKNSLYLQMNSLKTEDTAVYYCARHGNFGNSYVSWFAYWGQGTLVTVSSAAAGSHHHHHH
0.006 nM,0.007 nM,CD33/CD3 2×2 T-cell engager 15 (bispecific antibody) DIQMTQSPSSLSASVGDRVTITCRSSTGAVTTSNYANWVQQKPGKAPKALIGGTNKRAPGVPSRFSGSLIGDKATLTISSLQPEDFATYYCALWYSNLWVFGQGTKVEIKGGSGGSQVQLVQSGAEVKKPGASVKVSCKASGYTFTSYDINWVRQAPGQGLEWMGWMNPNSGNTGFAQKFQGRVTMTRDTSTSTVYMELSSLRSEDTAVYYCARDRANTDYSFGMDVWGQGTLVTVSSGGSGQSVLTQPPSASGTPGQRVTISCSGSRSNIGSNTVNWYQQLPGTAPKLLIYGNNQRPSGVPDRFSGSKSGTSASLAISGLQSEDEADYYCATWDDSLIGWVFGGGTKLTVLGGSGGSEVQLVESGGGLVQPGGSLRLSCAASGFTFSTYAMNWVRQAPGKGLEWVGRIRSKYNNYATYYADSVKDRFTISRDDSKNSLYLQMNSLKTEDTAVYYCARHGNFGNSYVSYFAYWGQGTLVTVSSAAAGSHHHHHH
0.094 nM,0.062 nM,CD33/CD3 2×2 T-cell engager 04 (bispecific antibody) DIQMTQSPSSLSASVGDRVTITCRSSTGAVTTSNYANWVQQKPGKAPKGLIGGTNKRAPGVPARFSGSGSGTDFTLTISSLQPEDFATYYCALWYSNLWVFGQGTKVEIKGGSGGSQVQLVQSGAEVKKPGASVKVSCKASGYTFTSYDINWVRQAPGQGLEWMGWMNPNSGNTGFAQKFQGRVTMTRDTSTSTVYMELSSLRSEDTAVYYCARDRANTDYSLGMDVWGQGTLVTVSSGGSGQSVLTQPPSASGTPGQRVTISCSGSRSNIGSNTVNWYQQLPGTAPKLLIYGNNQRPSGVPDRFSGSKSGTSASLAISGLQSEDEADYYCATWDDSLIGWVFGGGTKLTVLGGSGGSEVQLVESGGGLVQPGGSLRLSCAASGFTFSTYAMNWVRQAPGKGLEWVGRIRSKYNNYATYYADSVKDRFTISRDDSKNSLYLQMNSLKTEDTAVYYCARHGNFGNSYVSWFAYWGQGTLVTVSSAAAGSHHHHHH

# Continued, binder first:
Binder,"CD25 Induction EC50 (PBMC, 24 h)","CD69 Induction EC50 (PBMC, 24 h)"
CD33/CD3 2×2 T-cell engager 20 (bispecific antibody) DIQMTQSPSSLSASVGDRVTITCRSSTGAVTTSNYANWVQQKPGKAPKGLIGGTNKRAPGVPSRFSGSLIGTDFTLTISSLQPEDFATYYCALWYSNLWVFGQGTKVEIKGGSGGSQVQLVQSGAEVKKPGASVKVSCKASGYTFTSYYMHWVRQAPGQGLEWMGIINPSGGSTSYAQKFQGRVTMTRDTSTSTVYMELSSLRSEDTAVYYCARDVVPAAIDYYGMDVWGQGTTVTVSSGGSGQSVLTQPPSASGTPGQRVTISCSGSSSNIGSNTVNWYQQLPGTAPKLLIYSDNQRPSGVPDRFSGSKSGSSASLAISGLQSDDEADYYCATWDDSLNGAVFGGGTKLTVLGGSGGSEVQLVESGGGLVQPGGSLRLSCAASGFTFSTYAMNWVRQAPGKGLEWVGRIRSKYNNYATYYADSVKDRFTISRDDSKNSLYLQMNSLKTEDTAVYYCARHGNFGNSYVSWFAYWGQGTLVTVSSAAAGSHHHHHH,0.098 nM,0.075 nM
CD33/CD3 2×2 T-cell engager 10 (bispecific antibody) DIQMTQSPSSLSASVGDRVTITCRSSTGAVTTSNYANWVQQKPGKAPKGLIGGTNKRAPGVPSRFSGSLIGDKATLTISSLQPEDFATYYCALWYSNLWVFGQGTKVEIKGGSGGSQVQLVQSGAEVKKPGASVKVSCKASGYTFTSYDINWVRQAPGQGLEWMGWMNPNSGNTGFAQKFQGRVTMTRDTSTSTVYMELSSLRSEDTAVYYCARDRANTDYSFGMDVWGQGTLVTVSSGGSGQSVLTQPPSASGTPGQRVTISCSGSRSNIGSNTVNWYQQLPGTAPKLLIYGNNQRPSGVPDRFSGSKSGTSASLAISGLQSEDEADYYCATWDDSLIGWVFGGGTKLTVLGGSGGSEVQLVESGGGLVQPGGSLRLSCAASGFTFSTYAMNWVRQAPGKGLEWVGRIRSKYNNYATYYADSVKDRFTISRDDSKNSLYLQMNSLKTEDTAVYYCARHGNFGNSYVSWFAYWGQGTLVTVSSAAAGSHHHHHH,0.01 nM,0.006 nM
CD33/CD3 2×2 T-cell engager 11 (bispecific antibody) DIQMTQSPSSLSASVGDRVTITCRSSTGAVTTSNYANWVQQKPGKAPKGLIGGTNKRAPGVPSRFSGSLIGDKATLTISSLQPEDFATYYCALWYSNLWVFGQGTKVEIKGGSGGSQVQLVQSGAEVKKPGASVKVSCKASGYTFTSYDINWVRQAPGQGLEWMGWMNPNSGNTGFAQKFQGRVTMTRDTSTSTVYMELSSLRSEDTAVYYCARDRANTDYSLGMDVWGQGTLVTVSSGGSGQSVLTQPPSASGTPGQRVTISCSGSRSNIGSNTVNWYQQLPGTAPKLLIYGNNQRPSGVPDRFSGSKSGTSASLAISGLQSEDEADYYCATWDDSLIGWVFGGGTKLTVLGGSGGSEVQLVESGGGLVQPGGSLRLSCAASGFTFSTYAMNWVRQAPGKGLEWVGRIRSKYNNYATYYADSVKDRFTISRDDSKNSLYLQMNSLKTEDTAVYYCARHGNFGNSYVSWFAYWGQGTLVTVSSAAAGSHHHHHH,0.011 nM,0.005 nM
CD33/CD3 2×2 T-cell engager 13 (bispecific antibody) DIQMTQSPSSLSASVGDRVTITCRSSTGAVTTSNYANWVQQKPGKAPKGLIGGTNKRAPGVPSRFSGSLIGTDFTLTISSLQPEDFATYYCALWYSNLWVFGQGTKVEIKGGSGGSQVQLVQSGAEVKKPGASVKVSCKASGYTFTSYDINWVRQAPGQGLEWMGWMNPNSGNTGFAQKFQGRVTMTRDTSTSTVYMELSSLRSEDTAVYYCARDRAVTDYYYGMDVWGQGTLVTVSSGGSGQSVLTQPPSASGTPGQRVTISCSGSRSNIGSNTVNWYQQLPGTAPKLLIYGNNQRPSGVPDRFSGSKSGTSASLAISGLQSEDEADYYCATWDDSLIGWVFGGGTKLTVLGGSGGSEVQLVESGGGLVQPGGSLRLSCAASGFTFSTYAMNWVRQAPGKGLEWVGRIRSKYNNYATYYADSVKDRFTISRDDSKNSLYLQMNSLKTEDTAVYYCARHGNFGNSYVSWFAYWGQGTLVTVSSAAAGSHHHHHH,0.03 nM,0.022 nM
CD33/CD3 2×2 T-cell engager 03 (bispecific antibody) DIQMTQSPSSLSASVGDRVTITCRSSTGAVTTSNYANWVQQKPGKAPKGLIGGTNKRAPGVPARFSGSGSGTDFTLTISSLQPEDFATYYCALWYSNLWVFGQGTKVEIKGGSGGSQVQLVQSGAEVKKPGASVKVSCKASGYTFTSYDINWVRQAPGQGLEWMGWMNPNSGNTGFAQKFQGRVTMTRDTSTSTVYMELSSLRSEDTAVYYCARDRANTDYSFGMDVWGQGTLVTVSSGGSGQSVLTQPPSASGTPGQRVTISCSGSRSNIGSNTVNWYQQLPGTAPKLLIYGNNQRPSGVPDRFSGSKSGTSASLAISGLQSEDEADYYCATWDDSLIGWVFGGGTKLTVLGGSGGSEVQLVESGGGLVQPGGSLRLSCAASGFTFSTYAMNWVRQAPGKGLEWVGRIRSKYNNYATYYADSVKDRFTISRDDSKNSLYLQMNSLKTEDTAVYYCARHGNFGNSYVSWFAYWGQGTLVTVSSAAAGSHHHHHH,0.117 nM,0.087 nM
CD33/CD3 2×2 T-cell engager 01 (bispecific antibody) DIQMTQSPSSLSASVGDRVTITCRSSTGAVTTSNYANWVQQKPGKAPKGLIGGTNKRAPGVPARFSGSGSGTDFTLTISSLQPEDFATYYCALWYSNLWVFGQGTKVEIKGGSGGSQVQLVQSGAEVKKPGASVKVSCKASGYTFTSYDINWVRQAPGQGLEWMGWMNPNSGNTGFAQKFQGRVTMTRDTSTSTVYMELSSLRSEDTAVYYCARDRANTDFSYGMDVWGQGTLVTVSSGGSGQSVLTQPPSASGTPGQRVTISCSGSRSNIGSNTVNWYQQLPGTAPKLLIYGNNQRPSGVPDRFSGSKSGTSASLAISGLQSEDEADYYCATWDDSLIGWVFGGGTKLTVLGGSGGSEVQLVESGGGLVQPGGSLRLSCAASGFTFSTYAMNWVRQAPGKGLEWVGRIRSKYNNYATYYADSVKDRFTISRDDSKNSLYLQMNSLKTEDTAVYYCARHGNFGNSYVSWFAYWGQGTLVTVSSAAAGSHHHHHH,0.092 nM,0.091 nM
CD33/CD3 2×2 T-cell engager 02 (bispecific antibody) DIQMTQSPSSLSASVGDRVTITCRSSTGAVTTSNYANWVQQKPGKAPKGLIGGTNKRAPGVPARFSGSGSGTDFTLTISSLQPEDFATYYCALWYSNLWVFGQGTKVEIKGGSGGSQVQLVQSGAEVKKPGASVKVSCKASGYTFTSYDINWVRQAPGQGLEWMGWMNPNSGNTGFAQKFQGRVTMTRDTSTSTVYMELSSLRSEDTAVYYCARDRAVTDYYYGMDVWGQGTLVTVSSGGSGQSVLTQPPSASGTPGQRVTISCSGSRSNIGSNTVNWYQQLPGTAPKLLIYGNNQRPSGVPDRFSGSKSGTSASLAISGLQSEDEADYYCATWDDSLIGWVFGGGTKLTVLGGSGGSEVQLVESGGGLVQPGGSLRLSCAASGFTFSTYAMNWVRQAPGKGLEWVGRIRSKYNNYATYYADSVKDRFTISRDDSKNSLYLQMNSLKTEDTAVYYCARHGNFGNSYVSWFAYWGQGTLVTVSSAAAGSHHHHHH,0.042 nM,0.027 nM
